Legend:
TG neuronal cells = assay: Cell viability assay (Live/Dead) of TG neuronal cells; format: cell-based, mouse; conditions: 50 ng/ml single dose on first day of culture without serum; day 2 and 3
Protocol: The effect of VEGF-B on the survival of TG neuronal cells was evaluated with the Live/Dead Viability/Cytotoxicity kit (Invitrogen), as described in Pan, Z., Fukuoka et al., FASEB J. 27, 2756-2767 (2013).

[1] = test system: corneal nerves of C57BL/6 and Vegf-b−/− mice; assay: Corneal nerve regeneration after epithelial debridement, subconjunctival injection; format: in vivo, mouse; conditions: 0.5 ng subconjunctival single bolus, 7 days after debridement
Protocol: Wild type C57BL/6 and Vegf-b^-/- mice were subject to corneal epithelial debridement as described above or left intact. A 5 ul volume containing 0.5 ng VEGF-B^186 in PBS was injected subconjunctivally, at the lateral temporal bulbar conjunctiva, using a 10-μl micro-syringe (Hamilton Co). Equal volume of 0.1% bovine serum albumin (BSA) was used in control mice. The recovery of the corneal epithelial injury was imaged at 24, 40 and 48 hours by applying 1% fluorescein solution to the corneal surface and wounds photographed under diffuse cobalt blue light attached to a slit lamp bio-microscope (Nikon FS-3, Nikon) connected to a digital camera (Canon EOS 60D). The corneal epithelial defect areas were quantified by analyzing the images with Photoshop CS4 (Adobe). Corneas were harvested after one week for immunodetection of nerves. Possible growth of blood vessel into the cornea was monitored by slit lamp examination. […] The YFP fluorescent nerves were imaged with a fluorescence microscope at the site of pellet implantation and at a site 180 degrees opposite to the pellet. Images were analyzed using Neurolucida. […] Quantification of corneal nerves regeneration was obtained from corneal wholemount images traced and analyzed with Neurolucida 9 software. […] Central and peripheral cornea nerve densities were calculated and expressed as a percentage of control.

B1: recombinant mouse VEGF-B^186 (protein, listed as Homo sapiens)
chain: MSPLLRRLLLAALLQLAPAQAPVSQPDAPGHQRKVVSWIDVYTRATCQPREVVVPLTVELMGTVAKQLVPSCVTVQRCGGCCPDDGLECVPTGQHQVRMQILMIRYPSSQLGEMSLEEHSQCECRPKKKDSAVKPDRAATPHHRPQPRSVPGWDSAPGAPSPADITHPTPAPGPSAHAAPSTTSALTPGPAAAAADAAASSVAKGGA
notes: vascular endothelial growth factor B; recombinant mouse VEGF-B186 (R&D 767-VE-010)
In the case of B1, the “cells surviving (neuronal viability)” value (TG neuronal cells) is reported as 50%, the “corneal nerve regeneration into the injured zone” value ([1]; Vegf-b−/− mice) is reported as “confined to the peripheral cornea” and the “corneal nerve regeneration into the injured zone” value ([1]; wild-type mice) is reported as “enhanced nerve regeneration in both the central and peripheral corneas”.
